Test [1] deals with T1, Rat IL-23R_huFC (rat, UniProt F1LX96 39-369).
T1 sequence: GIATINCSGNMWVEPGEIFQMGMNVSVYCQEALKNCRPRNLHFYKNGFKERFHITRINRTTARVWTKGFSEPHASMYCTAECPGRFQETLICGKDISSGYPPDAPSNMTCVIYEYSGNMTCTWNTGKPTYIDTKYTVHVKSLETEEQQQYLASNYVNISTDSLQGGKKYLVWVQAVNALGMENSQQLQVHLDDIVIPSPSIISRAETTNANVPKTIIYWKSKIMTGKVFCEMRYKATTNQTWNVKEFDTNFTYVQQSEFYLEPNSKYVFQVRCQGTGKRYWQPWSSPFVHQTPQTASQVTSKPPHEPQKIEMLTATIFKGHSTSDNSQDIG
In words: rat IL-23R competitive binding ELISA. (In general: An ELISA detects its analyte on a solid surface through an enzyme-linked reagent.)

Test [2] addresses T2, IL23R_huFC (human, UniProt Q5VWK5 24-353).
T2 sequence (looked up): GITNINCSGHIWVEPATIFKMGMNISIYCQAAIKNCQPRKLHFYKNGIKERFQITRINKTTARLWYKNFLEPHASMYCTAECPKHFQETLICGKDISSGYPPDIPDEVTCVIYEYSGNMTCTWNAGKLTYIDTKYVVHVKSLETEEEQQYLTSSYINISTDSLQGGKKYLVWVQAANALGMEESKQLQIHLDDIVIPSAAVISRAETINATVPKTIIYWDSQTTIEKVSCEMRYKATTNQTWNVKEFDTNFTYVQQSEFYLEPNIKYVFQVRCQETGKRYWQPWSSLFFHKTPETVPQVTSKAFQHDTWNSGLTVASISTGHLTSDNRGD
In words: IL23-IL23R competitive binding ELISA.

For test [3], the target named is T3, IL-23R on DB cells (human, UniProt Q5VWK5 24-629).
T3 sequence (looked up): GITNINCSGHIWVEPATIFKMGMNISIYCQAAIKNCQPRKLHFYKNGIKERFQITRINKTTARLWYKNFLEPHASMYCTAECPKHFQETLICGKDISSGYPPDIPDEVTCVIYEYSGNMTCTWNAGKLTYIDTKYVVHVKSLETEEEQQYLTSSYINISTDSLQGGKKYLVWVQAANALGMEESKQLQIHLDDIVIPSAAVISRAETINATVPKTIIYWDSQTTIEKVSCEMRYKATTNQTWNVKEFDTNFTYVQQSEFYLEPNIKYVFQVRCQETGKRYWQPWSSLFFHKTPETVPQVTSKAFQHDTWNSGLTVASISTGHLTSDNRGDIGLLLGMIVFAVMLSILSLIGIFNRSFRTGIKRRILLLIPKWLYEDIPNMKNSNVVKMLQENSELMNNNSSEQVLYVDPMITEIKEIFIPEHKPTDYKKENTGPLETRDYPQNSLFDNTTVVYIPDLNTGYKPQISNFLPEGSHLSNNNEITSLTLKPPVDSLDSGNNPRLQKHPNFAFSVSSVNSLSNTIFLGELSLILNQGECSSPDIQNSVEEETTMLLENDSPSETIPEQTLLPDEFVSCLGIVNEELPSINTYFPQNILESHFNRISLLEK
The experiment in a line: cell-based or functional assay.

The target of test [4] is T1, Rat IL-23R_huFC. The experiment in a line: rat IL-23R competitive binding ELISA. The source holds these as a separate data set.
Test [5] addresses T4, IL-23R on human cells (IL-23R-expressing DB cells; human NK cells) (human, UniProt Q5VWK5 24-629).
T4 sequence (looked up): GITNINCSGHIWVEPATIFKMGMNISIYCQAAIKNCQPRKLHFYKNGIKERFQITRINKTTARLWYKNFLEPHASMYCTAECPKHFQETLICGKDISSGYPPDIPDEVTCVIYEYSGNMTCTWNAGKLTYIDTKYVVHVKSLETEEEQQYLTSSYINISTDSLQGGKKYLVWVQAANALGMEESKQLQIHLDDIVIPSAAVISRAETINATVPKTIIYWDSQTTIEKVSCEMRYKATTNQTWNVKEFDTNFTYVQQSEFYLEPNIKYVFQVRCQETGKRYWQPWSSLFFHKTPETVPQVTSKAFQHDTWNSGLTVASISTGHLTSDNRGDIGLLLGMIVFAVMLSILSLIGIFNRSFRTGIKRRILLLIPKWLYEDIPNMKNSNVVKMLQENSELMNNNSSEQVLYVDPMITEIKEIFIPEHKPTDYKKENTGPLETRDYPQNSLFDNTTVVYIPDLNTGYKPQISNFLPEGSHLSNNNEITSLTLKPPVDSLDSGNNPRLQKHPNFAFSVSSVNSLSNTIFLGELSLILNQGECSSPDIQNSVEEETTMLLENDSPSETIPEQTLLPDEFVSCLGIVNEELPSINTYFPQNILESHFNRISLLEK
The experiment in a line: cell-based or functional assay.

Test [6] concerns the target Rat IL-23R_huFC (rat). The experiment in a line: rat ELISA vs IL-23.
The target of test [7] is T4, IL-23R on human cells …. The experiment in a line: cell-based or functional assay. This is another data set of the same source.
In test [8] the target is T5, IL23R_huFC (human, UniProt Q5VWK5 24-353).
T5 sequence (looked up): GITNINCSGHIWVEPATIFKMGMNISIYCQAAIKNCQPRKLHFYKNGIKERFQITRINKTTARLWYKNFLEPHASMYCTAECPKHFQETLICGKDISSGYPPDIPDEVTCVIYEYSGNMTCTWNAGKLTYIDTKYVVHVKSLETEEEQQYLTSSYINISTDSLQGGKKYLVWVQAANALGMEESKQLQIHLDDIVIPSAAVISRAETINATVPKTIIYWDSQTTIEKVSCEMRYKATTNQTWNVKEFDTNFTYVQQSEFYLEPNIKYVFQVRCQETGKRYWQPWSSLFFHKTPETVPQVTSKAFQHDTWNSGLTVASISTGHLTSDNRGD
In words: human ELISA vs IL-23.

Like-named read-outs stand apart in the source and are kept apart here. Bridges are numbered along the chain shown (N, C = ends). [ ]: non-standard residue; d: D form. 2Nal = N[C@@H](Cc1ccc2ccccc2c1)C(=O)O; AEF = NCCOc1ccc(C[C@H](N)C(=O)O)cc1; αMeK = C[C@](N)(CCCCN)C(=O)O; Abu = CC[C@H](N)C(=O)O; Ac4c = NC1(C(=O)O)CCC1; Ac3c = NC1(C(=O)O)CC1; Aib = CC(C)(N)C(=O)O

B1: Ac-CSTWECYWHTYG-NH2 (peptide)
peptide: Ac-CSTWECYWHTYG-NH2
modifications: disulfide 1-6
By IC50 is commonly meant the concentration that inhibits the measured activity by half. Lower therefore signals higher potency. On to B1, for which the IC50 in test [1] came to 286 nM.

B2: pyroglutamic acid-[Pen]-QTWQ[Pen]-[Phe(4-OMe)]-[2-Nal]-[α-MeLys]-[Lys(Ac)]-NG-NH2 (peptide)
peptide: EXQTWQXFXKKNG
modifications: N-terminal pyroglutamic acid; Pen-Pen disulfide; Phe(4-OMe); 2-Nal; α-MeLys; Lys(Ac); NH2
B2: the IC50 in test [2] and in test [4] was 25 to 100 nM throughout. For the same molecule, in test [3], the “pStat3 HTRF IC50” value was < 10 nM.

B3: Ac-[Pen]-QTWQ-[Pen]-Y-[α-MeLeu]-ENG-NH2 (peptide)
peptide: XQTWQXYWLENG
modifications: Ac; Pen-Pen disulfide; α-MeLeu; NH2
With B3, the IC50 in test [2] lay in the range of 25 to 100 nM; in test [4], 100 to 1000 nM. Also, the “pStat3 HTRF IC50” value in test [3] fell in the range of 10 to 25 nM.

B4: Ac-CSTWQCYWSKQSGGS-NH2 (peptide)
peptide: Ac-CSTWQCYWSKQSGGS-NH2
modifications: disulfide 1-6
SMILES: CC(=O)N[C@H]1CSSC[C@@H](C(=O)N[C@@H](Cc2ccc(O)cc2)C(=O)N[C@@H](Cc2c[nH]c3ccccc23)C(=O)N[C@@H](CO)C(=O)N[C@@H](CCCCN)C(=O)N[C@@H](CCC(N)=O)C(=O)N[C@@H](CO)C(=O)NCC(=O)NCC(=O)N[C@@H](CO)C(N)=O)NC(=O)[C@H](CCC(N)=O)NC(=O)[C@H](Cc2c[nH]c3ccccc23)NC(=O)[C@H]([C@@H](C)O)NC(=O)[C@H](CO)NC1=O
As to B4, the IC50 in test [1] turned out to be 204 nM.

B5: Ac-Cyclo-[[Abu]-QTWQC]-[Phe[4-(2-aminoethoxy)]]-[2-Nal]-]Acpc]-ENN-NH2 (peptide)
peptide: Ac-[Abu]QTWQC[AEF][2Nal][Ac3c]ENN-NH2
modifications: thioether 1-6
With B5, the “NK cell assay IC50 (IFNγ)” value in test [5] is < 25 nM.

B6: Ac-[Pen]-QTWQ-[Pen]-Y-[2-Nal]-[α-MeLys]-ENG-NH2 (peptide)
peptide: XQTWQXYXKENG
modifications: Ac; Pen-Pen disulfide; 2-Nal; α-MeLys; NH2
For B6, the IC50 in test [2] fell in the range of 25 to 100 nM; in test [4], 100 to 1000 nM. Moreover, in test [3], the “pStat3 HTRF IC50” value was < 10 nM.

B7: Ac-[Pen]-QTWQ-[Pen]-[Phe[4-(2-aminoethoxy)]-[2-Nal]-[α-MeLys]-ENA-NH2 (peptide)
peptide: XQTWQXFXKENA
modifications: Ac; Pen-Pen disulfide; Phe[4-(2-aminoethoxy)]; 2-Nal; α-MeLys; NH2
With B7, the figures for the IC50 in test [2] and in test [4] were < 10 nM and 25 to 100 nM, respectively. The “pStat3 HTRF IC50” value in test [3] is < 10 nM.

B8: Ac-[Pen]-QTWQ-[Pen]-[Phe[4-(2-aminoethoxy)]-[2-Nal]-[α-MeLeu]-[Lys(Ac)]-NN-NH2 (peptide)
peptide: XQTWQXFXLKNN
modifications: Ac; Pen-Pen disulfide; Phe[4-(2-aminoethoxy)]; 2-Nal; α-MeLeu; Lys(Ac); NH2
Take B8: the IC50 in test [2] and in test [4] was < 10 nM in each case. In addition, the “pStat3 HTRF IC50” value in test [3] was < 10 nM.

B9: Ac-[Pen]-QTWQ-[Pen]-[Phe[4-(2-aminoethoxy)]-[2-Nal]-[α-MeLeu]-QNN-NH2 (peptide)
peptide: XQTWQXFXLQNN
modifications: Ac; Pen-Pen disulfide; Phe[4-(2-aminoethoxy)]; 2-Nal; α-MeLeu; NH2
Turning to B9, the IC50 in test [2] and in test [4] was < 10 nM throughout. The “pStat3 HTRF IC50” value in test [3] is < 10 nM.

B10: Ac-Cyclo-[[Abu]-QTWQC]-[Phe[4-(2-aminoethoxy)]]-[2-Nal]-[α-MeLys]-ENN-NH2 (peptide)
peptide: Ac-[Abu]QTWQC[AEF][2Nal][αMeK]ENN-NH2
modifications: thioether 1-6
For B10, the “NK cell assay IC50 (IFNγ)” value in test [5] is < 25 nM. In addition, the IC50 in test [6] and in test [8] was < 10 nM throughout. Also, the “pStat3 HTRF IC50” value in test [7] was < 10 nM.

B11: Ac-Cyclo-[[Abu]-QTWQC]-[Phe[4-(2-aminoethoxy)]]-[2-Nal]-[α-MeLys]-ENQ-NH2 (peptide)
peptide: Ac-[Abu]QTWQC[AEF][2Nal][αMeK]ENQ-NH2
modifications: thioether 1-6
Regarding B11, the “NK cell assay IC50 (IFNγ)” value in test [5] was < 25 nM. Also, the IC50 in test [6] and in test [8] was < 10 nM each time. Moreover, in test [7], the “pStat3 HTRF IC50” value was < 10 nM.

B12: Ac-CQTWQCYW-[α-MeOrn]-ENG-NH2 (peptide)
peptide: CQTWQCYWXENG
modifications: Ac; α-MeOrn; NH2
In the case of B12, the IC50 in test [1] is 64 nM.

B13: Ac-CQTWQCYW-[Aib]-ENG-NH2 (peptide)
peptide: Ac-CQTWQCYW[Aib]ENG-NH2
modifications: disulfide 1-6 (inferred)
In turn, B13 returned an IC50 in test [1] of 34 nM.

B14: Ac-Cyclo-[[Abu]-QTWQC]-[Phe[4-(2-aminoethoxy)]]-[2-Nal]-[Acbc]-ENN-NH2 (peptide)
peptide: Ac-[Abu]QTWQC[AEF][2Nal][Ac4c]ENN-NH2
modifications: thioether 1-6
For B14, the “NK cell assay IC50 (IFNγ)” value in test [5] was < 25 nM. Besides, in test [7], the “pStat3 HTRF IC50” value was < 10 nM.

(Values after US20190300590A1 (PROTAGONIST THERAPEUTICS, published 2019).)
